Experiment: soluble on expression in E. coli; label from the status in PepcDB or PDB records

Sequence | soluble on expression in E. coli
FSNNNFVYTDGTHFALNGKSLYINGFNAYWLMYIAYDPSTRIKVTNTFQQASKYKMNVARTWAFSHGGSRPLQSAPGVYNEQMFQGLDFVISEAKKYGIHLIMSLVNNWDAFGGKKQYVEWAVQRGQKLTSDDDFFTNPMVKGFYKNNVKVVLTRVNTITKVAYKDDPTILSWELINEPRCPSDLSGKTFQNWVLEMAGYLKSIDSNHLLEIGLEGFYGNDMRQYNPNSYIFGTNFISNNQVQGIDFTTIHMYPNQWLPGLTQEAQDKWASQWIQVHIDDSKMLKKPLLIAEFGKSTKTPGYTVAKRDNYFEKIYGTIFNCAKSGGPCGGGLFWQVLGQGMSSFDDGYQVVLQESPSTSRVILLQSLRLSKLS | soluble
MGSDKIHHHHHHMEMAIYCGKTYSWANELCSKPLKEVKVVDYNSVVDWVNSQKERAFLIFGTDVIPYSLYEYPKIPVNETPLFKFMERGGVVIWTGDVPFFYIEKDGIKKELFSKGNPFPFKPISVMGHKPLSEKSENSIVGEMLKYDPKDSWRPVEPHPLLIPISIVKSHPYTLYSTWIYKYGKGAFVRLYDSPYVNTQYILSLPERLSSLGIGIRISNFRRFRDFKMIFPEFKIGVILGKNNVGKTTILEAIAMLGKNEDKIRKFRGNISTEIAETELFVNYTYYKAEFSYSQVNRSADVNVLLIYSHDIDFVIDDKVLPYVKSSLRKVTELLNSFDPNIFYVYLSSGNELRVLFNDRTDVSINELGYGYKSLLNFILLYVIYQPRIILIDDLEGFALHPDLLKMFYDLLLKIDVDLILITTQSSDIYAYLAEKRSDKVRFILINDDKYEVLTSEEVLDRLYYEDLRYTALKIH | not soluble
MGSDKIHHHHHHMSYWIQISNNVRYSNTFEPVCQPGATREERSTTDPGGVGTVPAIHGASNLNIIPIMRARRASITWPSEGLTRVPYALFQDEGVYADEQDAIFRGPNWSYLCLEAEVPNQGDFRSTFVGDAPVVVTRDTDGEIYAFENRCAHRGAMVCLEDQGNARDFSCVYHAWTYSLQGDLVGVAFKDGIDGKGGMKPDFCTGDHGLRKLRVATLHGLVFGSFSDDVPPLDEYLGEEIVERIARVLENRKPVVLGRFTQMLPNNWKLYFENVKDSYHASILHLFFTTFQLNRLSQRGGIIVDPSGGHHVSYSAVDHAAEAAAQRKATSDYADQKIRSESEHRLEDTSVLAGVDEFGDGVTLQILSVFPGFVLQQIQNAIAVRQILPRGTQQTELNWTYLGFEDDTPELREMRLRQSNLVGPAGYVSMEDGCVGGFVQRGIEGAGDGRSVIEMGGDSAESSASRVTEASIRGFWKAYRNAMGY | not soluble
MGSDKIHHHHHHMNEIAEVLPESMKNALSEIPEQQWLEIEEVRIRINRPVELIRRGQPVYLSYAGTAEDAHLILSRLSNYSMYTLEEELKKGYVTIRGGHRVGLAGRVITENGGVKGLRDIASFNIRIARQKLGIAEPLLPYLYQNSWLNTLIIGPPQTGKTTLLRDLARLSSTGKKNMLPVKTGIVDERSEIAGCLRGIPQHQFGQRIDVLDACPKAEGLMMMIRSMSPEVMIVDEIGRMEDTDALLEALHAGVSVIVSAHGWSISDLMKRPSLKRLWEERAFDRYLELSRAKGPGTVSQIYDKDGNVLSRTTGVKTC | not soluble
MRLSDAEILHELRHTPLKELGERAYEVKKRLHPKRITTFVVDRNINYTNICWVDCKFCAFKRKLSQEETYILSFEEIDRKIEELIAIGGTQILFQGGVHPELKIEWYENLVSHIAQKFPEITIHGFSAIEVDYIARLSKLSLKETLQRLQAAGLSSIPGAGAEILSDRVRDIIAPKKLSADRWIEVHRTAHQIGMKSTATMMFGTIEEEEDIIEHWRRIRELQEETGGFRAFILWSFQPHHTPLKAEFPHLQKSSSNRYLRLLAASRLYLDNFPNLQSSWVTQGSYIGQMALLFGANDLGSTMMEENVVSAAGARNQMNQEEMIALIKDVGELPAKRNTAYEILERY | not soluble
MGSDKIHHHHHHADKFVAKCPNEIFIGAILEANSINQDTYKFLKISMNPINMGYTIPIKSQTITPSYNNMMKAIHEALKTNDVLKSNYSFSFVIKKIKSYQELAVNWGQNINLQQLLGITPDYKPQKNIILIDINQSFFSIIMDMPESLSTDPQVLQQLDKLAFINSIQFGRKVILVIESNIDYDKLQEAIDNLLKSKEVSQKELAILANSNIRLMTIGNKEIKDINPDNPFTSILTYLSSTVTPDDFGGPISFSASNIKDNSVFVNYFNVQ | not soluble
MRVYAIADPHLSRVHPKPMTVFGAGWEGHPEAFFRGWREVVGEEDLVVVPGDISWAMRLSEAIPDLLDLARLPGRKVLLKGNHDYWWPSISRLRAALPPGMYALQNDALVVDGVAVAGTRGWQYPPQTPEDEKVFAREVERLKLSLKALEGQPYRHLVVAFHFPPFGPGGEASPLLELAAGAHPQAIVYGHLHGADPAKLPQSYRGIPLHLVAADALRFRPKLVLEAD | soluble
MGHHHHHHSHMGKQKKTRKYATMKRMLSLRDQRLKEKDRLKPKKKEKKDPSALKEREVPQHPSCLFFQYNTQLGPPYHILVDTNFINFSIKAKLDLVQSMMDCLYAKCIPCITDCVMAEIEKLGQKYRVALRIAKDPRFERLPCTHKGTYADDCLVQRVTQHKCYIVATVDRDLKRRIRKIPGVPIMYISNHRYNIERMPDDYGAPRF | not soluble
MYIPKHFAVNDPDVAYQVIEENSFATLVSMHQRELFATHLPLLLDREKTCLYGHFARSNPQWNDIQHQTVLAIFHGPHCYISPSWYETNQAVPTWNYVAVHVYGNVELINDQGEVMQSLHDMVEKYEAPGSRYQLSEVDAGMLSGMNKGIQAFKIIIKRIEGKAKLSQNHPAHRQERIIKQLEQMPFENEKRIASLMKKQRQ | soluble
MSLSEEKWAIITGADGGMGTEITRAVAEAGYHIIMACYRPSKAEPIRQRLVNETGNANMEVMAVDLSSMASTASFADRIVERHLPVSLLMNNAGTMETGLHITDDGFERTVSVNYLGPYLLTRKLLPALTCGARIVNMVSCTYAIGHLDFPDFFRQGRKGSFWRIPVYSNTKLALMLFTIELSERLREKGITVNAADPGIVSTDIITMHQWFDPLTDIFFRPFIRTPKKGASTAVGLLLDEAVAGVSGQLYASSHRKQLSEKYLCHVQQKQLWQETEQALERWLKEGHHHHHH | soluble
EREEEPAVQGNPDESLTVEGALEYVELAPQLNLPQQEEDADFHTVAGLIMEELQTIPDVGDFADFHGWRFEVVEKEGQRIERVKITKLP | soluble
SKLVWSPETASKAYIDTVKSCENLETPDAAELIAAMAAGWNVKLIVETWSEGDAIASSIGLNVASKHANAKHICIVQNSRSESAYLQAIQESSSPLNFPETIVAEEPGKAMKKLQGVDFLVVDWRNKEFAAAALKNAAFGNRGAVVVCRNGYSSLRRVLRDRKVVRTVTLPVTGGIEIAHVAARNSGKSGNNKRRWITHVDQRSGEEHVFSI | soluble
MSLEQVEILRKFIQRVQAMKSPDHNGEDNFARDFMRLRRLSTKYRTEKIYPTATGEKEENVKKNRYKDILPFDHSRVKLTLKTPSQDSDYINANFIKGVYGPKAYVATQGPLANTVIDFWRMIWEYNVVIIVMACREFEMGRKKCERYWPLYGEDPITFAPFKISCEDEQARTDYFIRTLLLEFQNESRRLYQFHYVNWPDHDVPSSFDSILDMISLMRKYQEHEDVPICIHCSAGCGRTGAICAIDYTWNLLKAGKIPEEFNVFNLIQEMRTQRHSAVQTKEQYELVHRAIAQLFEKQLQLYEIHGAQKIADGVNEINTENEGHHHHHH | soluble
MRYAAYYAPRPDSALWRAGCEWLGYDAAGGAQLPRPDVEGVEAGELAGLTREAARYGWHATLKAPFALRPGVGEDALLLQTSMLARRFQPFALSLQVGWLGDFLALRPAGPCAELDELAAACSVSLEGLADRHAPLRPREGLDPRQQALYRRWGYPYVFEQFRFHLTLSDRLDRESAAAVLIERGARRHFAGLLQQVAVAGVTLFVEREQGGPFRYLAYCGFNGEVARHGR | not soluble
METIKIGVVGLGTVGTGVVKMLQAHQEKISEITGRKLELACVVVHNLKKHEQVDLGDVQMTDQIATLLDDPSIQIMVEVMGSIHPAKEYITQALQAGKHVVTANKDLIAQYGRELVQIARENHRDLFYEASVAGGIPILRTIDNSFAADRIQRVMGIVNGTTNYIMTQM | not soluble
MSLNRKHETVSEFVRHLPCENCGSSDANSIYTDNHQYCFACEHYVHGDGETPTTGGRTKRMEGLISGEFKPLMKRKLTLETCRKFGYFVSEVRGRLVQVAPYFDNSGVMVAQKLRDQDKGFAILGDGAKLTLFGQNLWASGGKKIVVTEGELDAMSVSQVQNNKWPVVSLPNGAPAARKAIQRNIEYLESFEEVILMFDMDEPGREAAQECAELFSPGKCKIATLSMKDANELLVAGREQEIVTAIWNAKLYRPDGVVNVRDLLEEIRKALVMGLPWFLDPLTQLTYGRRYGEVYGLGAGTGVGKTDFLTQQIAYDIQVLGERVGTIFLEQKPTETAKRVAGKIAGKRFHVPKDTAGWTDEELDAAVDALGENLVMYDAFGETEWDIVKRKVRYMAVSEGIKLIYIDHLTAMADTADEKGSLEQIMKEMAGLANELGIIITFISHLTTPEGKPHEEGGRVTIRHFKGSRAIGFWSYFMFGLERDQQAEDPVVRQTTTFRILKDRCTGQATGEVLYLAYDRDTGLLSLTEAPEPSSPFKDESEGHHHHHH | soluble
GPLGSMTTKQTVSLFIWLPESKQKTLFISTKNHTQFELNNIIFDVTLSTELPDKEPNAIITKRTHPVGKMADEMRKYEKDHPKVLFLESSAIHDMMSSREEINALLIKNNIPIPNSFSVKSKEEVIQLLQSKQLILPFIVKPENAQGTFNAHQMKIVLEQEGIDDIHFPCLCQHYINHNNKIVKVFCIGNTLKWQTRTSLPNVHRCGIKSVDFNNQHLEDILSWPEGVIDKQDIIENSANRFGSKILEDPILLNLTSEAEMRDLAYKVRCALGVQLCGIDFIKENEQGNPLVVDVNVFPSYGGKVDFDWFVEKVALCYTEVAKI | soluble
MSARKLFYLGPQGTFTHQAAVNAAQELARFEPQGFDLMPMDDVPQILDAAQHGDGWGIVAWENNVEGYVVPNLDALIDAKDLVGFARVGVNVEFDAYVAQGADPAEARIATAHPHGLAQCKRFIAEHRLSTQPATSNAAACRDLIPGEIAFGPAICGELYDITRIGTAIQDYQGAATDFLVLSPRAE | not soluble
MSLDEIAVPILSIITLSSYQPDTIALVDDFSSVSYRNAIIHIETVSEQIASCVANSLTKRVMAYFAGSAEMVLAILGAQLSGAAYIPIEPKTPGSRIDAIADVAKPCMIMTDSQNRQGAQSIAERLGIPLVVLSLKKAGKTLDIFREGYREQPFTVERLTSSTPAVVFFTSGSTGTPKGVELSHLGYYRWFEGVQDLIQVKRGDRVALTTNHSFDLSLGELYLGLMSGATLYVPRQSTVRDPLSLVPWLDQHEITVFQSVPSLMRRILLFRESAGQGLETVRTIMFCGEPLEQQLVKKVKDSFPFSHTRILNLYGPVEASVQVTYCWAEEYLGSEDVIIPLGKPLKHVVVRLAEVDDTSHELQITGDHLALRYLDEKKTRESFINDEAEGTRFYRTGDLGRLNARGDLEYHGRVDDQVKINGYRIELGEIEKTIIDHFKATDCCVLIEKSEGEPSLVAFVVSPNDSVADLRRAVADHLPTYMIPRTVIFIESIPLNTNGKRDKPSLRAEYLKEGHHHHHH | not soluble
LTEHLIDSIRTNRTENKIHLKPEPFNIGPYTKLSINKRDNYGTIKIKWFDRVPFTEYKSFLDSSIHNLNTRQITNLIIDLRWNIGGPREYPIYLLSKILNQPFRYCDSLITTKFTFEEKIAFDSTKVFVPMDNGFYKVVKNARGLGQQNPSNVTFTGNIYLLVDGQSNSSSAQVASLIYQNRRGTIIGEEPGGLFEGGTGEHHYYLTLTNSRIKVQIPRYRIVLHVDRSKFHGHGVKPDYEVKPDITDMIQGKDPVMEFTIGLIKK | not soluble

— the DeepSol protein solubility set
